Measurements: patent US20220298230A1 (ROCKEFELLER UNIVERSITY, published 2022)

What was measured:
FcγRIIIb [1] = molecular target: T1, FcγRIIIb (human, UniProt O75015 17-200); assay: stated in the variant's description; method not given
T1 construct: also called FcγRIIIa/b (second member)

FcγRIIIa [2] = molecular target: T2, FcγRIIIa (human, UniProt P08637 17-208); assay: as above
T2 construct: also called FcγRIIIa/b (first member)

FcγRIIIb [3] = molecular target: T1, FcγRIIIb; assay: stated in the variant's description; FcγR binding profile in FIG. 22A
FcγRIIIa [4] = molecular target: T2, FcγRIIIa; assay: as above

T1 sequence (O75015 17-200 limits assumed): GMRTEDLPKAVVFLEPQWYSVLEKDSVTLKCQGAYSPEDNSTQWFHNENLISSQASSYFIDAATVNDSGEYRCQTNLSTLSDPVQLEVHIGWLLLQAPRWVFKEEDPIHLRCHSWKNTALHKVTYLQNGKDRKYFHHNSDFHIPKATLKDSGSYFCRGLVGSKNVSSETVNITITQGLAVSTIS
T2 sequence (P08637 17-208 limits assumed): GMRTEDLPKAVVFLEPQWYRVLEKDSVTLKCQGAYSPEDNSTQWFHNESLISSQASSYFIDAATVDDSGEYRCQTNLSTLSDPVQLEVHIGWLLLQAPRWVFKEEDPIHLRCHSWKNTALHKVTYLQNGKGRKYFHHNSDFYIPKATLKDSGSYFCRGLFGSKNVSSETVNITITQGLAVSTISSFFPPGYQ

Binder | binding result (FcγRIIIb [1]) | binding result (FcγRIIIa [2]) | binding result (FcγRIIIb [3]) | binding result (FcγRIIIa [4])
1A01_ALIE (antibody) heavy: not shown light: DIQMTQSPSSLSASIGDRVTITCRASQSIRNYLNWYQQKPGKAPKLVIYAVSNLQSGVPSRFSGSGSGTDFTLTISSLQPEDLATYYCQQSYSTLPYTFGQGTKVEIKLERADAAPTVSIFPPSSEQLTSGGASVVCFLNNFYPKDINVKWKIDGSERQNGVLNSWTDQDSKDSTYSMSSTLTLTKDEYERHNSYTCEATHKTSTSPIVKSFNRNEC | binds | binds | – | –
Flu1_ALIE (antibody) heavy: not shown light: DIQMTQSPSSLSASVGDRVTITCRTSQSLSSYLHWYQQKPGKAPKLLIYAASSLQSGVPSRFSGSGSGTDFTLTISSLQPEDFATYYCQQSRTFGQGTKVEIKRTVAAPSVFIFPPSDEQLKSGTASVVCLLNNFYPREAKVQWKVDNALQSGNSQESVTEQDSKDSTYSLSSTLTLSKADYEKHKVYACEVTHQGLSSPVTKSFNRGEC | binds | binds | – | –
Flu1_afucosylated (antibody, also called the afucosylated antibody) heavy: not shown light: DIQMTQSPSSLSASVGDRVTITCRTSQSLSSYLHWYQQKPGKAPKLLIYAASSLQSGVPSRFSGSGSGTDFTLTISSLQPEDFATYYCQQSRTFGQGTKVEIKRTVAAPSVFIFPPSDEQLKSGTASVVCLLNNFYPREAKVQWKVDNALQSGNSQESVTEQDSKDSTYSLSSTLTLSKADYEKHKVYACEVTHQGLSSPVTKSFNRGEC | binds | binds | – | –
3C05_ALIE (antibody) heavy: not shown light: EIVLTQSPATLSLSPGERATLSCRASQSVSSYLAWYQQKPGQAPRLLIYDASKRATGIPARFSGSGSGTDFTLTISSLEPEDFAVYYCQQRSNWLTFGGGTKVELERTVAAPSVFIFPPSDEQLKSGTASVVCLLNNFYPREAKVQWKVDNALQSGNSQESVTEQDSKDSTYSLSSTLTLSKADYEKHKVYACEVTHQGLSSPVTKSFNRGEC | – | – | binds | binds
